Experimental data published in article PMC10022743.

Experiments:
Experiment in all cases: immunoprecipitation followed by mass spectrometry
Conditions in all cases: 2 h EBSS and 300 nM Torin 1; YKT6 siRNA-treated HEK293T WT cells; read off a plot
[1] = target: STX5
[2] = target: BET1
[3] = target: NSF
[4] = target: SEC22B
[5] = target: NAPA
[6] = target: VAMP8
[7] = target: VTI1B
[8] = target: SNAP23
[9] = target: SEC24C

## HA–YKT6-WT (full-length, siRNA-resistant) (from UniProt O15498) T156A
[1]
  other: Log2 T156A : WT ratio: 1.2 log2
[2]
  other: Log2 T156A : WT ratio: 0.27 log2
[3]
  other: Log2 T156A : WT ratio: 2.3 log2
[4]
  other: Log2 T156A : WT ratio: 1.9 log2
[5]
  other: Log2 T156A : WT ratio: 1.6 log2
[6]
  other: Log2 T156A : WT ratio: 1 log2
[7]
  other: Log2 T156A : WT ratio: 1.4 log2
[8]
  other: Log2 T156A : WT ratio: 2.8 log2
[9]
  other: Log2 T156A : WT ratio: 0.67 log2

## HA–YKT6-WT (full-length, siRNA-resistant) (from UniProt O15498) T156E
[1]
  other: Log2 T156E : WT ratio: -0.7 log2
[2]
  other: Log2 T156E : WT ratio: -4.4 log2
[3]
  other: Log2 T156E : WT ratio: -0.3 log2
[4]
  other: Log2 T156E : WT ratio: -1.3 log2
[5]
  other: Log2 T156E : WT ratio: -0.8 log2
[6]
  other: Log2 T156E : WT ratio: -2 log2
[7]
  other: Log2 T156E : WT ratio: -0.7 log2
[8]
  other: Log2 T156E : WT ratio: -1.5 log2
[9]
  other: Log2 T156E : WT ratio: 0.18 log2
